Measurements published in article PMC8960796, “Crystal structure report of the ImmR transcriptional regulator DNA-binding domain of the Bacillus subtilis ICEBs1 transposon” (Scientific Reports, 2022).

Target: the molecule itself
Assay: crystal structure; crystals from 18% (w/v) PEG 3350, 10 mM magnesium chloride, 50 mM Tris-HCl pH 8.5; space group I2, two protomers per a.u. related by a dyad; data at 100 K, 2.10 Å

B1: ImmR transcriptional regulator DNA-binding domain (Bacillus subtilis ICEBs1) (domain or fragment, Bacillus subtilis strain 168, UniProt P96631 1-64, looked up)
chain: MSLGKRLKEARQKAGYTQKEAAEKLNIGNNNLSNYERDYRDPDTDTLLKLSNLYNVSTDYLLGK
notes: ImmR, HTH-type transcriptional regulator of ICEBs1, Bacillus subtilis strain 168, 127 residues; the final model comprises M1-K64 of molecules A and B, each with an N-terminal alanine (A0) left from the purification tag; Full-length ImmR (1-127) was set up for crystallisation; The authors suppose that a trypsin-like contaminant cut it after K64, because there is no density beyond K64 and the …
- binding result: binds
